# Measured values taken from patent US20130121989.
# What was measured:
# [1] = molecular target: T1, Tetrahymena α-tubulin with non-acetylated K40, from the MEC17-KO strain (as axonemes or as purified tubulin), P41351
# T1 chain: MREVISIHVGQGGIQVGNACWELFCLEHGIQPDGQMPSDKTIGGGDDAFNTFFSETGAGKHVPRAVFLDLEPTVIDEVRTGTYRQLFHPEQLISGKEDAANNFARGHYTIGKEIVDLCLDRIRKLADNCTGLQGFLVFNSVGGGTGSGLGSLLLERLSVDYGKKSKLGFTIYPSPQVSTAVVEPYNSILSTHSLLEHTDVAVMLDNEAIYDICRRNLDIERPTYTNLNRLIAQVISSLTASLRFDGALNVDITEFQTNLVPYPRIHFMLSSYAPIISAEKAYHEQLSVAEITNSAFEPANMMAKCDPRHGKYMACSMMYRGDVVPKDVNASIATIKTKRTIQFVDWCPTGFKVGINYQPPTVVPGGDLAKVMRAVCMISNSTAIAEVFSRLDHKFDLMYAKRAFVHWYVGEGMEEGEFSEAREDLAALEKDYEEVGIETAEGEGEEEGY
# [2] = molecular target: T2, Tetrahymena K40R α-tubulin (axonemes from a K40R Tetrahymena mutant), P41351
# T2 chain: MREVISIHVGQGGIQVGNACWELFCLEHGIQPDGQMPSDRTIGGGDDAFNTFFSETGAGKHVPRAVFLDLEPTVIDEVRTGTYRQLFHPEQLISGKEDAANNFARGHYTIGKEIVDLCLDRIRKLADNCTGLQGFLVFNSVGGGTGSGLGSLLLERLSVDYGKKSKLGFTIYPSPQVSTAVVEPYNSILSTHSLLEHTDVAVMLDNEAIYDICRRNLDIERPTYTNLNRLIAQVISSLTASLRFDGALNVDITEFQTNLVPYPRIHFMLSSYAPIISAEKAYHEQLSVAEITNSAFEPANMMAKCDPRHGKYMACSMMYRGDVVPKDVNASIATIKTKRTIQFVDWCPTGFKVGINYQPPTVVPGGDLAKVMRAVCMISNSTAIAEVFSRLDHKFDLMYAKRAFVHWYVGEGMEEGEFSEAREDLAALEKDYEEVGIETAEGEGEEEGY
Protein,"in vitro acetylation of K40 axonemes, western blot with pan acetyl-K antibodies [1]","in vitro tubulin acetylation (αTAT) assay on MEC17-KO axonemes with acetyl-CoA, western blot with 6-11 B-1 mAb [1]","in vitro acetylation of R40 (K40R) axonemes, western blot with pan acetyl-K antibodies [2]","in vitro tubulin acetylation (K40 αTAT) assay on MEC17-KO axonemes, western blot with 6-11 B-1 mAb [1]"
GST-MmMEC-17 (recombinant murine MEC-17 expressed in E. coli as a GST fusion) (protein) MEFPFDVDALFPERITVLDQHLRPPARRPGTTTPARVDLQQQIMTIVDELGKASAKAQHLPAPITSALRMQSNRHVIYILKDTSARPAGKGAIIGFLKVGYKKLFVLDDREAHNEVEPLCILDFYIHESVQRHGHGRELFQHMLQKERVEPHQLAIDRPSPKLLKFLNKHYNLETTVPQVNNFVIFEGFFAHQHRPPTSSLRATRHSRAAVADPIPAAPARKLPPKRAEGDIKPYSSSDREFLKVAVEPPWPLNRAPRRATPPAHPPPRSSSLGNSPDRGPLRPFVPEQELLRSLRLCPPHPTARLLLATDPGGSPAQRRRTRGTPWGLVAQSCHYSRHGGFNTSFLGTGNQERKQGEQEAEDRSASEDRVLLLDGSGEEPTQTGAPRAQAPPPQSWTVGGDIMNARVIRNLQERRSTRPW,GST-MmMEC-17 modified K40 axonemes,"GST-MmMEC-17, but not GST, mediated a robust αTAT activity in vitro",failed to acetylate R40 axonemes,
"GFP-Mec17p (Tetrahymena MEC-17 tagged with GFP, crude enriched soluble fraction from transgenic Tetrahymena) (protein) MFKNQLLSLSLRIQKLRLCRQGNQLKVLQKSINQLLFKTQSIDQILQYLQQKKKTHQSILENQNQHIHSIGLVSQLTNQKINKQKNQKAMEFNFIINKLVQLDQQGLGVYIPRASRSKVSSQQEQQLGQVLNTMGERSAIAQGLKQVITNYDKVQGTDQRVYIVAEGRTCQGFLKVGQKNLFYRDMMGNIKEIKPLCVLDFYVHESCQRQGYGKLLFEYMIQCEQTSPEKLAYDRPSPKLIAFLKKHYNLVKYIAQNNNFVVFDQYFRSDASSQNKQNQNTRSYSQPYSDYSSQIPTNYPQQQQQQSNSKSYPYKQENNIDLMQHSSSRNNKEFLNAGRAILSKEEIYKKDNLSQQNIENTLNNINNSQYSTKSQQQQQYQKDYQLDKYENNWGADKNIKKPPFPGQDRQLDKIQQKIQQTERELDVVNQQIIKQRQNLSQDPLTQNHRAQNVYNTNQFGTSPWAQTGFNYYSTSSSNYGNHYTYYKK",,,,A crude GFP-Mec17p-enriched fraction (obtained from transgenic Tetrahymena) had K40 αTAT activity in vitro that was dependent on the presence of acetyl-CoA
